From patent publication US20240252795A1, “INGESTIBLE DEVICE FOR DELIVERY OF THERAPEUTIC AGENT TO THE GASTROINTESTINAL TRACT” (BIORA THERAPEUTICS, INC., priority 2018, published 2024) come the findings set out here.

The data set is described as follows: Adalimumab plasma PK after ID (2-nozzle jet delivery device), SC or IV administration. The data set is classed as in vivo, female Yorkshire pigs (Sus scrofa domesticus). The procedure: A total of 21 healthy female Yorkshire pigs (Sus scrofa domesticus) having a body weight of 25-30 kg were used in this study. Five (N=5) were used in each of dose Groups 1-3 (intraduodenal (ID) administration via an endoscopically placed ingestible device), and three (N=3) were used in each of dose Group 4 (SC administration) and dose Group 5 (IV administration). The study design is shown below in Table 16.
Animals were housed two per cage and fasted for a minimum of 12 hours prior to dosing. Food was returned at 4 hours post-dose. Water was supplied ad libitum. The dosing was as follows: Dose day 1: group 1 (n=3), and group 3 (n=2); Dose day 2: group 2 (n=3), and group 1 (n=2); Dose day 3: group 3 (n=3), and group 2 (n=2); Dose day 4: groups 4 (n=3), and group 5 (n=3). Following the 240-hour post-dose blood collection the animal was euthanized via euthanasia solution IV bolus dose.
For subcutaneous (SC) administration, animals were placed in dorsal recumbence and the SC injection site asceptically prepared with alcohol. The test article was administered as an SC injection into a “skin tent” on the belly of the pig.
Each blood sample was collected from the pig jugular vein, or other suitable vessel via direct venipuncture, placed into a chilled tube containing K2-EDTA as the anticoagulant, and inverted several times to mix. Blood samples were kept on wet ice until centrifugation. […] Plasma was collected into pre-labeled polypropylene tubes and placed in a freezer set to maintain −60 to −80° C. prior to analysis.
All plasma samples were diluted by 1:100 dilution. Plasma samples were reanalyzed with a 1:1000 dilution from animals 6287, 6289, 6332, 6334, 6336, 6149, 6335, and 6337. Plasma samples close to the lower limit of quantification (LLOQ) were repeated with a 1:5 dilution from animals 6138 and 6137. […] Therefore, the data from animal 6138 and 6137 were not included in the final PK analysis. […] The area under the concentration curve (AUC) was calculated with the trapezoidal rules.

Where [1] appears, read: Group 1: ID, 2 nozzle jet delivery device 220 PSIG, 40 mg, N=2, plasma.
Setting [2] is: Group 3: ID, 2 Nozzle device 320 PSIG, N=5, data from Example 5.
Where [3] appears, read: Group 3: ID, 2 Nozzle device 320 PSIG, data from Example 5.
Where [4] appears, read: Group 3: ID, 2 nozzle jet delivery device 320 PSIG, 40 mg, N=5, plasma.
The mark [5] stands for this setting: Group 4: SC control, N=3, data from Example 5.
The mark [6] stands for this setting: Group 4: SC control, data from Example 5.
Where [7] appears, read: Group 5: IV control, N=3, data from Example 5.

In the case of adalimumab, the Cmax (in general, the peak of the concentration-time curve) reads like this: under setting [1], 0.57 µg/mL; under setting [2], 5.00 µg/mL; under setting [4], 5.00 µg/mL. Moreover, the time of peak concentration (Tmax) – broadly, the time at which the peak concentration occurs – under setting [1] was found to be 24 h; the Tmax (Group 2: ID, 2 nozzle jet delivery device 270 PSIG, 40 mg, N=4, plasma) was found to be 24 h; the Tmax under setting [2] was found to be 24 h; the Tmax under setting [4] came out at 24 h; the time to peak (Tmax) under setting [5] is 140 h; the Tmax (Group 4: SC, 40 mg, N=3, plasma) was found to be 140 h. In addition, the time to peak (Tmax) under setting [7] worked out at 3.12 h and the Tmax (Group 5: IV, 40 mg, N=3, plasma) turned out to be 3.12 h. Besides, the “AUC0-10 (±SEM)” value stood at 32.31 µg·days/mL under setting [2], 91.87 µg·days/mL under setting [5] and 122.67 µg·days/mL under setting [7]. The “AUC0-10 Corrected for Dose (±SEM)” value under setting [2] was 32.25 µg·days/mL. Besides, the “Bioavailability over IV (±SEM)” value reads like this: under setting [3], 26.25; under setting [6], 74.89; (Group 5: IV control, data from Example 5) 100. Also, the “Bioavailability over SC (±SEM)” value under setting [3] turned out to be 35.38 and the “Bioavailability over SC (±SEM)” value under setting [6] stood at 100. Also, the “Bioavailability over IV” value (Group 5: IV) is on record as 100%.
